# The RNAGym collection of RNA variant scans (doi:10.7554/elife.90254)
# B1: LINE1-full (parent)
# chain: UACGUAGGUGGUUUUCCCCUGAUAGUGCUAAGGGGGCCUGGAAGUUUGGACUGGGCAGAGCUCAACACAGCGUGGCAAAGUGGCUGUGGCUAGACUGCCUCUCUGGAUUCCUCGUCACUCAGCAGGGCAUCUCUGAGAGAAAUGCC
# Variants of: B1
# Experiment: self-cleavage, relative activity (ratio to wild type); higher = more cleavage; in vitro, sequencing; the parent is a self-cleaving ribozyme
row,Variant,self-cleavage
1,U13A U73C,0.94
2,U15C C28U,2.35
3,U130A A140G,1.27
4,C19A U100A,0.51
5,U45C U73A,1.68
6,U15A A121G,1.15
7,A30G U143A,0.93
8,C56U U87C,0.11
9,U112A U132A,1.69
10,U23A A107U,1.1
11,U13C A43U,1.29
12,A30G G105C,0.25
13,U85C U109G,0
14,C37G A129G,0.9
15,U20A G58C,0.08
16,U47C A92U,0.77
17,A59U A136U,0.87
18,U87A G122A,0.09
19,U29A G89U,0.04
20,U81A A138C,2.3
21,G25A U87C,0.22
22,U13A U134C,0.85
23,A77G G80A,2.17
24,U134A,0.98

row,Variant,self-cleavage
1,G58U U132C,0.01
2,U14C U52A,0.85
3,U81A G126U,2.04
4,C99U U112C,0.36
5,U132A,1.32
6,A77C A142G,1.34
7,A22G U132C,1.11
8,A64C A69G,0.35
9,U23C A65G,0.1
10,U23C A30G,0.89
11,U115C A138G,1.79
12,G40A G88A,0.04
13,U96A U112A,0.06
14,G74A U112C,0.66
15,G4C U87C,0.74
16,U81A C133U,1.95
17,U20A U26A,1.23
18,U130C A141C,2.91
19,A64U A124U,0.38
20,A69G A129U,0.58
21,U5A C98U,0.53
22,G7U A107G,1.36
23,U5C A43U,1.48
24,G7A U109C,1.19

row,Variant,self-cleavage
1,U20A U100C,1.49
2,G55A A94G,0.2
3,G72A U85G,0.21
4,A141C A142G,1.26
5,A69C U143G,0
6,U62C C131A,0.03
7,A107G U130C,2.26
8,A50G A138G,1.2
9,U12A A140U,1.09
10,U29A U45C,0.96
11,A30G U119C,1.45
12,A92U G105A,0.77
13,A65G C95A,0.04
14,U23A U109A,1.33
15,U1C C17U,0.87
16,U26A A78U,1.61
17,U47G U85A,0.05
18,G74A U130C,0.87
19,U13C A64U,0.44
20,A50G G80U,0.35
21,U52C A64G,0.34
22,G82U U143C,1.72
23,U52A A124U,1.15
24,A57G U134G,0.78

row,Variant,self-cleavage
1,U12G U26A,1.3
2,G60A C68U,0.03
3,C17U C131A,1.58
4,U20A U104C,0.93
5,G21U U73C,2.04
6,U45C C99U,1.07
7,A50G A92U,0.37
8,U87A U132A,0.07
9,C28U A64U,0.33
10,U87C A121G,0.15
11,U5C U81C,0.8
12,G49A A107G,0.73
13,U96C U115C,0.32
14,A30G A92G,0
15,U12C U81C,1.11
16,A43G A78G,1.2
17,C3U U112A,1.38
18,G34C A140C,1.79
19,G7U U9C,1.56
20,C71U U119C,1.18
21,A30G G70U,0.11
22,A30C G41U,1.52
23,U115A U143C,1.54
24,C3A A65G,0.29

row,Variant,self-cleavage
1,C98U U112C,0.26
2,U12C C103A,1.01
3,U52C A59U,0.72
4,G4A G125A,0.86
5,U45G A121G,0.46
6,C18A A129G,1.42
7,U73G U108A,1.33
8,C116U U132C,0.91
9,U12A U47C,1.17
10,G34U A140U,1.64
11,A2G A43U,1.34
12,U14A U132C,1.35
13,U39A A117U,1.63
14,G114A U119C,1.2
15,U29C G70U,0.01
16,G54U U62A,0.02
17,A94U U134A,0.25
18,A43G U119C,1.51
19,G55A A124U,0.19
20,A94G G114A,0.23
21,U46C C145U,1.58
22,A64U G126A,0.37
23,U100A G137A,0.85
24,G55C A77U,0.06

row,Variant,self-cleavage
1,U1C C63U,0.24
2,A43U U81C,1.26
3,A50G U73A,0.78
4,G40U U100A,0.89
5,U46C C111A,1.17
6,G70C U112C,0.14
7,U20A U115A,2.02
8,U108A U130A,0.38
9,U26C A94U,0.28
10,A67G A142C,0.93
11,G97A A136G,0.19
12,U1C G41A,0.52
13,U45C A129U,1.03
14,A42G C51U,1.28
15,A57U,0.1
16,U1A G33U,0.96
17,U62G A78G,0.06
18,U39C A69C,0.11
19,U52C U109A,1.6
20,G48U A117G,1.13
21,U12G A43C,1.02
22,C61A C123U,0.03
23,A65U A69C,0.02
24,A129G U134A,0.89

row,Variant,self-cleavage
1,U45G G97A,0.07
2,C37U A124U,1.12
3,A57G G75C,0.35
4,U39C U45C,1.54
5,A2G U15G,0.99
6,C18A A57G,1.29
7,G53A U134G,0.56
8,U62C A129C,0.19
9,A138U A140U,0.84
10,A42G C84A,0.15
11,G55A A121G,0.26
12,G74U A94G,0.15
13,U47C A107G,1.43
14,U73C U104C,0.94
15,G35U U130C,1.74
16,A43G U85A,0.1
17,A121U A142U,1.03
18,C76U A138G,2.42
19,U115G C145U,1.1
20,U29A G48A,1.01
21,G75A G135A,1.18
22,U62C U130A,0.07
23,U14C U23A,1.62
24,U119C U130A,1.93

row,Variant,self-cleavage
1,G80U U130C,0
2,U81C C116U,1.14
3,A65U A140U,0.1
4,C95U A129G,0.19
5,U9A G127U,1.92
6,U119C U143C,1.49
7,G49U A124U,1.59
8,U26C A30G,1.05
9,U46C U85G,0.37
10,C19U U132C,0
11,U26A U87A,0.01
12,U5C C111U,0.85
13,U15A U100C,0.91
14,U39G A140G,1.31
15,U52A U73A,1.63
16,G10A A59G,0.17
17,U9C G89U,0.08
18,A50C G122C,1.1
19,G54U A138U,1.01
20,G55A U81A,0.08
21,A57C U132G,0
22,U5C U112A,1.15
23,G34A U132A,1.51
24,A64G G80A,0.39

row,Variant,self-cleavage
1,U9G A94G,0.22
2,U1A U109C,1.05
3,U85A A124G,0.04
4,A42G U46C,1.49
5,U100C G105U,2.13
6,A2C A31G,1.34
7,C120U A141G,1.32
8,A78G A107U,1.26
9,G8A A141G,1.1
10,U29A U62C,0
11,A2G C37U,0.89
12,U5C U52A,1.02
13,U26G,0.99
14,U91C A107G,0.73
15,A69C A77U,0.09
16,G27A A142G,1.15
17,A30U U47A,1.15
18,A43U C131A,1.64
19,U81A G88A,0.06
20,A50G G105C,1.11
21,G60U A138G,0.04
22,C38U A142G,1.4
23,C18U U62C,0.08
24,A59G G114U,0.07

row,Variant,self-cleavage
1,C131G A138G,2.49
2,C131U U134A,1.65
3,U9C G137A,1.15
4,A2G A24G,0.71
5,C3A A138G,0.92
6,A124C,1.56
7,G11A C63A,0.01
8,G114A A138G,1.47
9,C84U A121G,0.2
10,G7A C18U,1.59
11,G41A A117G,1.53
12,A24U U108A,1.51
13,A64G U104A,0.32
14,U13A U130C,1.22
15,U115C U143G,2.45
16,A64U A129U,0.46
17,A31G G139U,1.67
18,U9C A43G,1.12
19,U29A U130C,0.81
20,U87A U130A,0.09
21,G49A G122C,1.28
22,U1C A117G,0.73
23,G55A A107G,0.22
24,A77C C116U,1.04

row,Variant,self-cleavage
1,U100A C116U,0.4
2,U1A A142G,1.19
3,A6G U23G,0.85
4,A6G U100C,0.87
5,A31U U46G,1.67
6,G7A U102C,1.77
7,U132C A138G,1.6
8,U45C A121G,1.71
9,U5C G74A,1.19
10,A43G C103U,1.25
11,U13A U62A,0.06
12,G74A A121U,1.07
13,G54U U119C,1.34
14,A141U U143C,0.28
15,C84U U112A,0.11
16,U112C C128U,1.35
17,A42U A64G,0.14
18,G7U A57G,0.12
19,U15A U47C,0.9
20,U52A A64G,0.31
21,C18U U87A,0.08
22,A67U C103A,0.15
23,A121G U132C,1.58
24,G44A U100A,0.85

row,Variant,self-cleavage
1,G60A U73A,0.02
2,U20A U47C,1.31
3,A43G G75A,1.06
4,G4A A107G,1.6
5,A78U U119A,1.82
6,U29C A31G,1.14
7,G27C,1.11
8,U46C U87A,0.13
9,G72U A94G,0.46
10,U100A U104A,1.51
11,U52C C56U,0.11
12,A79G C98U,0.45
13,U14G A57G,2.19
14,G82A G105A,1.95
15,U12G G40A,1.41
16,A22U U109C,0.91
17,U81C U115A,1.44
18,U87C U134A,0.18
19,A50G U96G,0.26
20,U109C C116U,1.5
21,G72U U73A,1.33
22,A42G A124U,1.35
23,U29C U45G,0.79
24,U112C A129U,1.67

row,Variant,self-cleavage
1,C66U A69G,0.06
2,G49A U81A,1.95
3,U91C A117G,0.78
4,A94G U130A,0.34
5,G25A U62C,0.11
6,U85G U102C,0.55
7,U73C C110U,2.11
8,U9A G70C,0.3
9,U1A A65G,0.07
10,U47A C128U,1.39
11,U12G U96A,0.21
12,A59G U87C,0.11
13,G34U A42U,1.15
14,G32A U102A,0.63
15,G32C A117G,1.53
16,U13C G54A,0.62
17,A6U A92U,0.47
18,U13A C71G,0.2
19,A43G G106A,1.36
20,U29C C84G,0.14
21,U96C A117G,0.2
22,U12G U52C,0.79
23,U23C G106U,1.04
24,U96C U134G,0.11

row,Variant,self-cleavage
1,A79G U96G,0.16
2,U108A A136G,0.53
3,A30U A31G,1.23
4,A22G C123U,0.99
5,A50G A69U,0.1
6,A6G U91C,0.51
7,U102A U109C,1.31
8,G74A U143G,2.27
9,U29C A107G,0.7
10,U15C U62C,0.09
11,U15G U115C,0.84
12,A117C A124U,1.14
13,A77U C84U,0.08
14,U1C U87A,0.23
15,U52C U134C,1.01
16,U52G U143C,1.99
17,U45G U46C,1.31
18,U23C U102A,1.28
19,U85G A107U,0.27
20,G34A A107U,1.2
21,G53C,1.13
22,U12A C98U,0.41
